From the nanobody polyreactivity screen of Harvey et al. (2022)

Assay: yeast display, Sf9 membrane polyspecificity reagent, FACS + sequencing; frameworks hold sequencing errors
Procedure, shortened: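 Genes from sorted yeast were amplified by colony PCR, read by MiSeq 2 × 250 sequencing and filtered on CDR length. These cells carried a synthetic nanobody library in Saccharomyces cerevisiae BJ5465 and were sorted by FACS into low and high (top ~1%) gates on anti-HA and streptavidin fluorescence. Polyreactivity is labelled according to the gate of origin.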

Sequence | polyreactivity (PSR sort gate)
QVQLVESGGGLVQAGGSLRLSCAASGYIFGVYVMGWYRQAPGKERELVAAITRGGGNTYYADSVKGRFTFSRDNAKNPVYLQMNSLKPEDTAVYYCAARSLKSLSRYYYWGQGTQVTVSS | high polyreactivity
QVQLVESGGGFVQAGGSLRLSCAASGCTFIKYAMGWYTQAPGKEREFVAAITRSGTSTYYADSVKGRFTISRDNAKNTVYLQMNRLKPEDTAVYFCSARYVYNSDRVSERDYWGQGTQVTVSS | high polyreactivity
QVQLVESGGGLVQAGGSLRLSCAASGFTFYLYAMGWYRQAPGKERELVAAITGRGTRTYYADSVKGRFTISRDNAKNTVYLQMNSLKPEDTAVYYCATGGANVDGDAYDYWGQGTQVTVSS | high polyreactivity
QVQLVESGGGLVQAGGSLRLSCAASGRTFSYYAMGWYRPAPGKEREFVAAISSTGTSTYYADSVKGRFTISRDNAKNTVYLQMNSLKPEDTAVYYCNARVATYRLHSKFYYWGQGTQVTVSS | high polyreactivity
QVQLVESGGGLVQAGGSLRLSCAASGSNFGYNALGWYRQAPGKDRELVAAITGSGGSTYYADSVKGRFTISRDNAKNTVYLQMNSLKPEDTAVYYCAHDLFGGPLGYWDYDYWGQGTQVTVSS | low polyreactivity
QFQLVESGGGLYQAGGSLRLSCASSGITLYFYAMGWYRQAPGKVRELVAAISRGGRTYYADSVKGRFTISRDNAKNTVYLQMNSLKPEDTAVYYCAARYTSEYSAFDYWGQGTQVTVSS | low polyreactivity
QVQLVESGGALVQAGGRLLLSCAASGRTFQGYVMGWYRQAPGKERELVAAISRGTSTYYADSVKGRFTISRDNAKNTVYLQMNSLKPEDTAGYYCAADGERRHYWGQGTQVTVSS | low polyreactivity
QVQLVESGGCLVQARGSLRLSCASSGFIFQAYAIGWYRHRPGKERELVASISYSGSRTYYADSVKGRFTISRDNAKNTVYLQMNSLKPADTAVYYCAAGPRYWYPWFGRDYEYWGQGTQVTVSS | high polyreactivity
QVQLVESGGGLVQAGGSLRLSCAASGSTLNRNVMGWYRQAPGKEREFVAVITYGVGSTYYADSVKGRFTISRDNAKNTVYLQMNSLKPEDTAVYYCNKDPLVFDYWGQGTQVTVSS | low polyreactivity
QVQLVESGGGLVQAGGSLRLSCAASGRTFTVYAMGWNRQAPGKEREFVATSSWSGGRTYYADSVKGRFTISRDNAKYTVYLQMNSLKPEDTAVYYCAAQEYTTRFYFNRDYWGQGTQVTVSS | low polyreactivity
QVQLVESGGGLVQAGGSLRLSCAASGRIFARNAMGWYREAPGKERELVATIRVGGGSTYYADSVKGRFTISRHNAKNTVYLQMNSLKPEDTAVYYCAVRQLYSYPGDRRGYYWGQGTQVNVSS | low polyreactivity
QVQLVESGGGLDQAGGSLRLSCAASGSIFPLYAKGWYRQAPGKERELVADITVSGGSTYYADSVKGRFTISRDYAKNTVYLQMNSLKPEDTAVYYCAKDNGPWFAYDYWGQGTHVTVSS | low polyreactivity
QVQLEDSGGVLVQAGGSLRLSCAASGFIYRFYPMGWYRKAPGKERELVAGISSSGGSTYYADSVKGRFTISRDYAKNTVYLQMNSLKPEDTAVFYCNAKRSDQSYKTFNYWGQGTQVTVSS | low polyreactivity
QVQLEESGGGLVQAGGSLRLSCAASGSTFKYYAMGWYRQAPGKERELVAAISWSGGSTYYADSVKGRFTISRDNAKNTVYLQMNRLKPEDTAVYYCNKLIYDEDEYWGQGTQVTVSS | high polyreactivity
QVQLVESGGGLVQAGGSLRLSCAASGSIFPYNAMGWYRQAPGKERELVAAISKRGGSTYYADSVKGRFTISRDNAKNTVYLQMNSLKPEDTAVYYCAARYPPYRSWYSYDYWGQGTQVTVSS | low polyreactivity
QVQLVESVGGLFHEGGSLRLSSAASGFIFWANAMGCYRQAPGKERELVAAIRNSGGRTYYADSVKGRFTISRDKAKNTVYLQMNSLKPEDTAVYFCATDTGYPYSYDLFDSYYWGQGTQLTVSS | low polyreactivity
QVQLVESGGGLVQAGGILRLSCAASGRTFGGNAIGWYRQAPGKERELVAAITVSAGHTYYADSVKGRFTISRDNAKNTVYLQMNSLKPEDTAVYYCAAGVPYYWSYVWKHPRFDHWGQGTQVTVSS | low polyreactivity
